These results are taken from patent US12539272B2, “Microemulsion-based vaccine delivery system, preparation method therefor and use thereof” (Sichuan University, priority 2020, dated 2026).

The test system of one test is DC2.4 cells. As to the kind of experiment: Uptake of the microemulsion vaccine system by the DC2.4 cells (flow cytometer). Type of test: cell-based. To be noted: 1.5 hours at 37° C. The method, then:
Uptake of the aluminum hydroxide microemulsion vaccine system by the DC2.4 cells: 1×10^6 DC2.4 cells are implanted in each well of a 12-well plate, put into an incubator for 4-6 hours, 5 μg of FITC labeled OVA or the aluminum hydroxide microemulsion entrapping the same amount of the FITC labeled OVA and prepared according to embodiment 6 are added into each well after cell anchorage. Supernatants are discarded after uptake for 1.5 hours at 37° C., cell surfaces are washed with PBS two times slightly, and then directly blown with the PBS, and the cells are centrifugally washed twice at 2000 rpm for 3 min, finally re-suspended by using 400 μl of PBS, and tested by a flow cytometer. […] In the figure, the Free OVA represents free FITC labeled OVA, and NE-OVA represents the aluminum hydroxide microemulsion entrapping the FITC labeled OVA.
Uptake of the ferric hydroxide microemulsion vaccine system by the DC2.4 cells: 1×10^6 DC2.4 cells are implanted in each well of a 12-well plate, and put into an incubator for 4-6 hours, and 2 μg of FITC labeled melanoma antigen peptide GP100 (ITDQVPFSV) or the ferric hydroxide microemulsion entrapping the same amount of the FITC labeled melanoma antigen peptide GP100 (ITDQVPFSV) prepared according to embodiment 9 is added into each well after cell anchorage. […]
(In general: Flow cytometry measures light scatter and fluorescence of single cells or particles in a stream.)

The subject of the next test is mice. As to the kind of experiment: Cytotoxic T lymphocyte (CTL) test by CFSE staining method in immunized mice. Type of test: in vivo. To be noted: 25 μl into paws of mice on Day 0, 7, 14; 5 μg OVA, 0.5 μg CpG; CTL on Day 21. The method, then:
Cytotoxic T lymphocyte (CTL) test and immune antibody testing of the aluminum hydroxide microemulsion vaccine system: 25 μl of the aluminum hydroxide microemulsion entrapping OVA and prepared in embodiment 6, the aluminum hydroxide microemulsion entrapping OVA and CpG and prepared in embodiment 7, and free OVA or free OVA and CpG (including 5 μg of OVA and 0.5 μg of CpG) are injected into paws of immunized mice on Day 0, Day 7 and Day 14, and CTL response in the body is tested by a CFSE staining method on Day 21. […] In the figure, OVA represents free OVA, NE-OVA represents the aluminum hydroxide microemulsion entrapping OVA, OVA+CpG represents free OVA and CpG, and NE-OVA-CpG represents the aluminum hydroxide microemulsion entrapping OVA and CpG.

In the case of “melanoma antigen peptide GP100 (ITDQVPFSV) [Free-GP100, reference compound]”, the “uptake by the DC2.4 cells (in words)” value with DC2.4 cells (2 μg FITC labeled GP100 per well) is listed as “barely taken up”.

B1: chicken ovalbumin (protein, UniProt P01012 2-386, looked up)
Ovalbumin: GSIGAASMEFCFDVFKELKVHHANENIFYCPIAIMSALAMVYLGAKDSTRTQINKVVRFDKLPGFGDSIEAQCGTSVNVHSSLRDILNQITKPNDVYSFSLASRLYAEERYPILPEYLQCVKELYRGGLEPINFQTAADQARELINSWVESQTNGIIRNVLQPSSVDSQTAMVLVNAIVFKGLWEKAFKDEDTQAMPFRVTEQESKPVQMMYQIGLFRVASMASEKMKILELPFASGTMSMLVLLPDEVSGLEQLESIINFEKLTEWTSSNVMEERKIKVYLPRMKMEEKYNLTSVLMAMGITDVFSSSANLSGISSAESLKISQAVHAAHAEINEAGREVVGSAEAGVDAASVSEEFRADHPFLFCIKHIATNAVLFFGRCVSP
modifications: FITC label in uptake test
notes: free model antigen chicken ovalbumin (OVA); FITC labeled in the uptake test
On to B1, for which, in the test with mice, the “antigen-specific cellular immune response (CTL)” value is on record as “cannot induce the antigen-specific cellular immune response”. In addition, in the test on DC2.4 cells (5 μg FITC labeled OVA per well), the “uptake by the DC2.4 cells (in words)” value was “barely taken up”.
